Laboratory results from the domain aggregation screens of Martell et al. (2025).

test: soluble fraction after stress (log2 fold change); higher = more stays soluble; pooled small domains, quantitative proteomics; conditions: stress: pH 4
How it was run: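 Values are on a log2 scale, where higher means more of the domain stayed soluble after pH 4 stress. They are fold changes in the soluble amount of each domain from pooled custom libraries, measured by high-throughput quantitative proteomics. The fold change is taken to reflect aggregation propensity.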

Row | Sequence | soluble fraction (log2)
1 | HMNNQVTFSKFLNEVEDGRVVEVNIQGNNITGVLSDGSKFKTFSPNYPNLVEKLSEKGVSINASPL | 0.153
2 | HMNNTIKFSVDENNSGKRLDVYLTENINHLTRSFLKKLIEKEQVKLNKKVLTSPATKVKTKDQITINIIE | -0.26
3 | HMNNWYESSIKSLVEEYFREHGFSVVFDSSEFWDVFIEKYHKQIPSSQIALFDQVAAEARSYAFNKK | -0.545
4 | HMNPETLTNGSVVKMSKANLSDELIIDMINNSPARFDLSSGALRSLEGEGVSKAVIESMKRATSG | 0.0233
5 | HMNPETLTNSSVIKMSKANLSDELITDMILNSPVKFDLSAGAIKTLESEGVTPAVLESMKNAASK | 0.0677
6 | HMNPFTHEEINLMSIYNAAGTREGLIAALTEMWGYLDAEETELRELADSALAKLRGITDAEYAALELE | -2.05
7 | HMNPGAYQVKAGEGLIGLSRRYNVPVDVLASVNNLNTTSSLRVGQTITIPTAAQVNRITQQAQ | 0.254
8 | HMNPGHAERGKEIVEVFLRNNGELSMREIAEKSNITITQARRRVNKLLDQGIVEATAPVQSRNRKYRIK | 0.0708
9 | HMNPIEAQIEELKNKDQKTAYQALKHLLAISETRAEVSYYFDRFVALLQDPQSYVRTRGLLLIGA | 0.0533
10 | HMNPLLSAYLAEVERGLQGLTAGRRRLVLRELEAHLLDEAEARGLLTEEDMRALLMEKEPPERLAQEIAQ | -0.925
11 | HMNPMLEPAGEIRLSDGVLLRWQSERLPGDDTVRGPGSLYELGLYRVKVRVSAPQQGVRESSVELAGWRQV | -0.212
12 | HMNPMRYLVVPSQETETWKEYLVSKEWLERKYRIETEGDNRAIPLSNLFPKIVPIELSNLEIIEKEAFS | -1.09
13 | HMNPNEVQIPDLVNKTEDEAEQILKDLKLKLVVKSEEYNENIEKGKIISQDPPYQENYTIKEHSEISIVIS | -0.415
14 | HMNPSRPASKEELLGLFEHLERALDAVTFFRPAEKKPVVVQTLRAMLTKASFTEQDIRTMRGVIAALEN | -0.986
15 | HMNPYQDSILLWKSFDTPLTNEDFMGLSKEELRIARNEIYAAYGRIFTSQDLIDYFNSKPWYQGTTPA | -0.883
16 | HMNQDQDLSRIKGIGPEMVDRLHAQGVETLEQIAAMQMEQLKKLDQQISGNGKAVREQWAEQAKQLLTT | -0.331
17 | HMNQEFRMPNAIKGVELSEENKQQLTQGEKVFLEGMTSAKGSLFDAYVYIDQEKKTLAFDFPEK | -0.792
18 | HMNQKTQMTKQILAESLKKLMLHHSFEKITIKDITDAAGFIRPTFYNHFKDKYDLVEWIFTEEI | -0.336
19 | HMNQKVRQLLSQAQAEMERKNYKQAIKLLDQALAIEPHSGELHFMKGYAWMSMGEFEKALESLYEARNYA | -0.754
20 | HMNQPRQRKVIFELIDERNALERVLMHFAHLEKQVEKIDERKYQVTLYYDKEDETEILIRVLSFG | -1.16
21 | HMNQTEKSKITHNELLKAAHSLFIEQGFNHTTITDIVTRAGYSTGIFYKHYKTKTDILVELWTNYIE | -1.28
22 | HMNQWQLLSEDGAILGTRVLYHPHETEQPFTRSLSGVKIPAHVQSVTIRAGDLVHGFGGREIQMQLPPIV | 0.0124
23 | HMNREENIQIGRDLLERELRKQGMDLQENLRQEVLLDGAKKLGFNNTDDLLAAIGDLKVTPAMFIGKIA | -0.168

Row | Sequence | soluble fraction (log2)
24 | HMNREMLVHAIGQLKEKYASALELKYWHGFTEREIAAFLNISEKAANSRLVRGRVMLRKLLE | 0.139
25 | HMNREYELTAEESGQRLDKYLAGEMTDLSRSRIKELVQAGEILVNGKKSKVSYKVQKDDLIQVIVLPLE | -0.0759
26 | HMNRITEFVVPEGTKKIRADKLLAESFPDHSRSDFHRAFDASLVRLEGQPISKNRKISQGDVLVFEMPEI | -0.468
27 | HMNRPQDLGEPYDGQFREHPEAWAFYAAQSPSYRRSASWWVLGAKQEVTRQRRLAALIDASAQGTRIPALT | -0.0491
28 | HMNRREFQFSEGSSNKFWSIELRDQSFIVHYGKIGTNGQAQEKTFATADAAKKEHDKLIAEKTKKGYVEVQ | -0.691
29 | HMNRTKYYDFEGHPAKVVRLTLPVYLNKIGDEVVVYDSQKFAREASPISESQYNRMVAEIFQP | -0.0162
30 | HMNSEAVQNVIDKISALPDDITAKAKSQIEEARAAYEALSDSEKARVTNYSTLVAAEKKLASVVKD | 0.121
31 | HMNSEERVLDTASKWLVKLDEGLDESEAQVLKVWLATPLHRDTFLEMVALWDKMSVLNELADIV | -1.94
32 | HMNSISDSELKALIKNNYLKFLKRIASDEEIEYHFNQIKNKTILLDELDSIFQNSQEYKDLVEHNNKIQN | -0.809
33 | HMNSKQELAYQTIRARIVDGSYGPGYRIVIDEVARELGVSPIPVREAVRRLEAEGLITYTRHAGARVVA | -0.273
34 | HMNSLQLGSRGPTVSALQAKLNTMLVPSPRLVADGSFGPKTAQAVKAFQQMKRLVADGVVGPKTAAALGLS | 0.281
35 | HMNSLQNNLKQARTRVGLTQGVLASQAGISRQAYSTLESGSANPSTEVALRLAQALQERVELLFYLPER | -0.609
36 | HMNSNKFANAAAVAVAEKPADSYNPLFIYGPSGVGKTHLLYAIANEIHKHHPDYNIVYIKGDQFTNELIN | 0.201
37 | HMNSNLSLTSYEEKIFFLLEKEKNLDELILESSFKAGEILSILMDLEIKHAIVSIPGGKYRRK | -1.32
38 | HMNSNQESFENWLSANSWYNKDRAMRVFADSLGQELRNSGVSFEKALTQISAEVRKEFSHKFQ | -0.213
39 | HMNSNSLSFSKFMQEVEAGRVIEVQIKGNDIQGELSDGSKFKTYSPNYPNLVDKLSENKVSIVATPL | 0.105
40 | HMNSNTIIFSQFLSEVDNGRVTQVQIQGNNIKGTLSNGKDFITYAPNDPNLIEKLTSKGVSISASPID | 0.217
41 | HMNSNTIIINDIMTKIGKEVKNFTEIYSIILKALAEHGEEYVRTNTEYALKNFTGNFDIFLEQLLLK | -0.219
42 | HMNSRAERKEAAKEAIRNLLREGMTFEELTGPWLEKRFAEEPFNRGARSWQMLISEIKEEPEFQHL | -0.916
43 | HMNSRQPEEEALFELLAKNPYSDEQLEEIRIAIGSGISYKDVLVIADIKNTAKQMKKLRLKFTKDTG | 0.118
44 | HMNSTEQQTERFLATLTSLGGNAGNQRLQEALGWQGSTYQRIKQHLLDEGRIRTGRGRGGSVALSEATAT | ≥ 0.43
45 | HMNSTGVYQRPDGFWEYRFTLSINGKKLPRRKSTDLMGNKLKTKREAIKAREEAIIALRTEKTI | 0.4
46 | HMNSTVKVPNVVGMSVPQAKALLEQNHLLVQGIREVSTDKAPAGIVINQLPYSDAEVKEERHIYLTVSKGK | 0.0926

Row | Sequence | soluble fraction (log2)
47 | HMNSVKSPMPGTILGLKVSVGDTVKVGDELLVLESMKMENMINSPIDGTVSKILISEGDSVQHGQELII | 0.102
48 | HMNSVSARRSAAITAISTGRIHSQEDLVQALKKAGYPVTQATASRDIEEIGAVRIRNQKGEMVYAIS | 0.321
49 | HMNTEEITYSRFQQMLEAGEISQVSIESNRILILPSEETGIEKVLYTGIINDPGLVERLNSAGVEFRAPIE | -1.16
50 | HMNTEFDVPDVVGKTLDEAEFVLKGSNLKRGLIMPVDDPSKAPGTIVRQNPEAGAGNKIRVGDVVDLWVVG | 0.187
51 | HMNTELSPKVWDVVQEFILYRKEIKAPMTEHAVKLLIGQLQKLSSDPDEQIEILRQSIVNGWKGIFSLK | -0.992
52 | HMNTGTTISYSDFRDRVASGTVKEVQISDDRITGVLKNDETFNTVPVGNDSGLTKLLDDNGVTYSGTP | 0.212
53 | HMNTIFSVNGPVVKVKDTKDFSMMEMVYVGEKKLIGEVIGITESFTTIQVYEVTTGLKVGEPVYTTGAPM | 0.166
54 | HMNTIIHPIRLAYVDSGSIKSMAEQAEIDVKILTSEANSQIFWAIGDEKQIDRLYNLISQVDIIQNK | -1.42
55 | HMNTKHVFIIEQDDEKKRLDIFLVEKLQDSRSFLKKGIVEGWVKVNESVVKPNYKLKQKDQITVIIPP | -0.396
56 | HMNTNDFTIGTRVRTTKKGNGSSDGTSNTARSGIEGTITRIIPEAKYPYLVSTTVPMGWYKKDALEK | 0.157
57 | HMNTPLYLKIREQIFDALRSGRWAANDPLPSETKLASEFEVSQGTIRKAIDDLVAQNILYRHQGRGTFIRR | 0.125
58 | HMNTSSVTVHYQDEAGKSLADTVTLTGKVGETYSSEQKKITGYNFKEVRGNPKGQFTTEAQTVTYVYTQAA | -0.195
59 | HMNTWVEIFRAEDQGQIRDASLVLLAVKVAHRVDMNSSSAPWSLMVPAQDQQRAHHELTTYWQENAH | -1.35
60 | HMNVAELIEGHEAEIAEVLKEFSLLYLMRLADELGEMTKSSSGNGPFQVLKGLVYEEIARRG | -0.416
61 | HMNVAVPTPADKRKVRVMKADINAKLRVNDANGAYAVYEELKEWVTLKGFTEWNDDLSKLSETMGSMKRKV | -0.0387
62 | HMNVDALVGQRGRVTQTFDPGLRLGRVAVGGDDWRAETTTDQPLREGDLVEVVSVESNTLIVRPIA | 0.0146
63 | HMNVDSLIGQTARVIVDINNNDSIGYALVGGQEWTARAENDNDIIPKDTLVEIVGVSGVKLIVRRKE | -0.0794
64 | HMNVDSLVGSEARVTAEIDNRKETGTAMVNGQEWTARAESDEEIYPVGTIVEIRKIQGVKLIVSTH | 0.18
65 | HMNVEATAETLLALLKKNGGSLPFGDKSDPEAIQSQLKMSKKTFKKAAGTLFKKKLVRIEDHGIFL | 0.0517
66 | HMNVEGEVVVPNVIGRTMKDVAVILSDLGLRMEAEGTGVAKSSQPQHGTSVKRGTVVQVRFEPLSVN | -0.201
67 | HMNVEKLREMYPEGTKIILQEMQGESRMAKGLKGTVTHVDDAGQIHMKWENGSSLVLNVEVDTFKKIE | -0.562
68 | HMNVEVDSIGDDDFLVKVSAGTSTEHRVTLTDAYWEQIWSSSLPKKEIISLSFAFLLEREPNSSIMRT | -0.937
